Paper PMC8748511 (Nature Communications, 2022)

Biological target: SARS-CoV-2 spike receptor binding domain (RBD) (SARS-CoV-2, founder (Wuhan-Hu-1) …, UniProt P0DTC2, amine-PEG3-biotin attached with sortase A at the C-terminal sortase motif (for SPR))

Row | Binder | binding result
1 | H5 (VHH) VHH: QVQLVESGGGLVQPGGSLRLSCAASGVTLDDYAIGWFRQAPGKEREGVSFITSSDGSTFYVDSVKGRFTIARDNAKNTVYLQMNALTPEDTAVYYCAVGPSFSSTGSTYYRSELPWDYDYWGQGTQVTVSS | binds
2 | H11 (VHH) VHH: QVQLVESGGGLVQPGGSLRLSCAASGLTLDDYAIGWFRQAPGKEREGVSFITSSDGSTYYVDSVKGRFTISRDNAKNTVYLQMNSLTPEDTAVYYCAVGPSFSYTGSTYYRSTLPWDYDYWGQGTQVTVSS | binds
3 | H6 (VHH) VHH: QVQLVESGGGLVQPGGSLRLSCAASGFTLDDYAIGWFRQAPGKEREGVSFITSSDGSTYYVDSVKGRFTISRDNAKNTVYLQMNSLTPEDTAVYYCAVGPSFSYTGSTYYRSVLPWDYDYWGQGTQVTVSS | binds
4 | H10 (VHH) VHH: QVQLVESGGGLVQPGGSLRLSCAASGFTLDDYAIGWFRQAPGKEREGVSFITSSDGSTYYVDSVKGRFAISRDNAKNTVYLQMNSLTPEDTAVYYCAVGPSFSRTGSTYYRSVLPWDYDYWGQGTQVTVSS | binds
5 | H8 (VHH) VHH: QVQLVESGGGLVQPGGSLRLSCAASGFTLDDYAIGWFRQAPGKEREGISFITSSDGSTYYVDSVKGRFTISRDNAKNTVYLQMNDLTPEDTAVYYCAVGPSFSYTGSTYYRSELPWDYDYWGQGTQVTVSS | binds
6 | H7 (VHH) VHH: QVQLVESGGGLVQPGGSLRLSCAASGFTLDDYAIGWFRQAPGKEREGVSFITSSDGSTYYVASVKGRFTISRDNAKNTVYLQMNDLTPEDTAVYYCAVGPSFSYTGSTYYRSELPWDYDYWGQGTQVTVSS | binds
7 | H9 (VHH) VHH: QVQLVESGGGLVQPGGSLRLSCAASGFTLDDYAIAWFRQAPGKEREGVSFITSSDGSTYYVDSVKGRFTISRDNAKNTVYLQMNDLTPEDTAVYYCAVGPSFSYTGSTYYRSELPWDYDYWGQGTQVTVSS | binds
